Results on three molecules are retold here after PMC2651784.

In series [1] the target is T1, GAF (GAGA factor);Hsf;Ttk69 (Drosophila melanogaster?;Drosophila …, UniProt Q08605;P22813;P17789 1-582;1-691;1-643, ||). As to the kind of experiment: competition.
For series [2], the target named is T2, Hsf (UniProt P22813 1-691).
T2 sequence: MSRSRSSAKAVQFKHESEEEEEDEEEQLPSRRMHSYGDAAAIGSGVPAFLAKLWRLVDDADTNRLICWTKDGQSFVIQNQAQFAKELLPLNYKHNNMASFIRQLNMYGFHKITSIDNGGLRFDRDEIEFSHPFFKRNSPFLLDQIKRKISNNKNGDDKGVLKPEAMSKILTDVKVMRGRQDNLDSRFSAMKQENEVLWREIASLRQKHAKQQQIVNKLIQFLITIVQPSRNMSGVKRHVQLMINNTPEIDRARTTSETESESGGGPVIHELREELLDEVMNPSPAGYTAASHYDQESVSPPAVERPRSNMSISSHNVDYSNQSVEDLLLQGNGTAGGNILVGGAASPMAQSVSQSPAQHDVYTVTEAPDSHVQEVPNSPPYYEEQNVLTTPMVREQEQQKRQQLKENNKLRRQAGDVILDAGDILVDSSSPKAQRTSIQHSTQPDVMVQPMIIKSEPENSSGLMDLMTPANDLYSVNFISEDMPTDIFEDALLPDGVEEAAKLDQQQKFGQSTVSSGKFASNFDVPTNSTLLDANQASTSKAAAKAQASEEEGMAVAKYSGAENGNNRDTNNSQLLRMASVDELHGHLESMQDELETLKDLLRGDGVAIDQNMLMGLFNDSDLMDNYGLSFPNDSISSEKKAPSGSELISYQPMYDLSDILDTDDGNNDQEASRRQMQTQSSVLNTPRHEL
Put plainly: EMSA.

Series [3] addresses Ttk69 (UniProt P17789 1-643). Put plainly: EMSA.
For series [4], the target named is T3, GAF (GAGA factor) (UniProt Q08605 1-582).
T3 sequence: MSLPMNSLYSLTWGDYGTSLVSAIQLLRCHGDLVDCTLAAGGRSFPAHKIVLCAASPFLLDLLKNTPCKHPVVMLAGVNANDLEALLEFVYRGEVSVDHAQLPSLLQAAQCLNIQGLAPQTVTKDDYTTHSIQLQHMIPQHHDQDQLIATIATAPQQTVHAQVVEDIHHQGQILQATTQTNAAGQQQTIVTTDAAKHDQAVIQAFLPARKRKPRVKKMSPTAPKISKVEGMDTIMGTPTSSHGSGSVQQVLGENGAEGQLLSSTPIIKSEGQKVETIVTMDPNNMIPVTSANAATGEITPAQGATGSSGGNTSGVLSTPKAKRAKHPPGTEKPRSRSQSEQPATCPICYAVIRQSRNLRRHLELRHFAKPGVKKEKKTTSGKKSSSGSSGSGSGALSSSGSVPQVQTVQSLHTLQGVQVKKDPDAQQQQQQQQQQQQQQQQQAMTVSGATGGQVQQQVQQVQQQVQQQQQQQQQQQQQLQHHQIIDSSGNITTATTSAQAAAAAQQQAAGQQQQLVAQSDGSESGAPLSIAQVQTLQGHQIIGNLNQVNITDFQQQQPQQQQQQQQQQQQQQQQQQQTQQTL
Put plainly: EMSA.

In series [5] the target is Hsf;Ttk69 (Drosophila melanogaster?;Drosophila …, UniProt P22813;P17789 1-691;1-643, |). Put plainly: EMSA.
The target of series [6] is T4, GAF (GAGA factor);Hsf-S378D (Drosophila melanogaster?;Drosophila …, UniProt Q08605;P22813 1-582;1-691, |S378D).
T4 sequence 1: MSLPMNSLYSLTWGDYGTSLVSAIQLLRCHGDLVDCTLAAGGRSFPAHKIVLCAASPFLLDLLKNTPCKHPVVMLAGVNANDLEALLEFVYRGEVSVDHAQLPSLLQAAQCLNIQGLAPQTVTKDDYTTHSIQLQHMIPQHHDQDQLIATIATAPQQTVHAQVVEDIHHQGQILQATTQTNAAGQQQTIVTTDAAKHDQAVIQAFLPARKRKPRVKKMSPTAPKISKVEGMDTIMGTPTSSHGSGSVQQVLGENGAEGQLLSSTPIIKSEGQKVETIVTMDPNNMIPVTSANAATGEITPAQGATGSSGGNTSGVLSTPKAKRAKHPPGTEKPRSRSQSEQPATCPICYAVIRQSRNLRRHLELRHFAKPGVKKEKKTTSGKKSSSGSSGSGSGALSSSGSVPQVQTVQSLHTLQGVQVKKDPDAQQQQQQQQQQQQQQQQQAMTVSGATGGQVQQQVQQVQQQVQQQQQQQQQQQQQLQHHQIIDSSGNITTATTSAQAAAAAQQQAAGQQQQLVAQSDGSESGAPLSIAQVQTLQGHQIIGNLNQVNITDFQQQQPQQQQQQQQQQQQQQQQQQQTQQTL
T4 sequence 2: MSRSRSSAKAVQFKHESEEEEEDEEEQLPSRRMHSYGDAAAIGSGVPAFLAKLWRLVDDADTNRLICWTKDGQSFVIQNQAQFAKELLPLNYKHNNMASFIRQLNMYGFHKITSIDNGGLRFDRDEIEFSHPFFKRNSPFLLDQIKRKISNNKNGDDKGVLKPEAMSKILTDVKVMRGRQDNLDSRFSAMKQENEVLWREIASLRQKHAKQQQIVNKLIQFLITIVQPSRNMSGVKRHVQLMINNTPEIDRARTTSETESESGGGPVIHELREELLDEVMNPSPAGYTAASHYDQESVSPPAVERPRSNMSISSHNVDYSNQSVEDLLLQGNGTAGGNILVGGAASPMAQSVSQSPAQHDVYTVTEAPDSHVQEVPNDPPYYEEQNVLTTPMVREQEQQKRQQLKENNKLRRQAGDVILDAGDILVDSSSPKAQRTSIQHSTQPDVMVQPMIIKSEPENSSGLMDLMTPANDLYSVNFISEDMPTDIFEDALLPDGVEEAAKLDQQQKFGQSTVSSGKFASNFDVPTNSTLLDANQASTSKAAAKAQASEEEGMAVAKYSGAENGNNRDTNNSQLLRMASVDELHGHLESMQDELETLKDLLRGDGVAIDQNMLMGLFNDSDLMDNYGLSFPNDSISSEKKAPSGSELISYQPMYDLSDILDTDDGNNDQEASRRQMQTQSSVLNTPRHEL
Put plainly: EMSA.

In series [7] the target is GAF (GAGA factor);Ttk69 (Drosophila melanogaster?;Drosophila …, UniProt Q08605;P17789 1-582;1-643, |). As to the kind of experiment: EMSA.
Series [8] has as its target T1, GAF (GAGA factor);Hsf;Ttk69. As to the kind of experiment: competition. This is another data set of the same source.

Where two headings read alike, the source gives them in different places.

B1: HSE competitor (dsDNA)
DNA 1: CGCCTCGAATGTTCGCGAAAAGAGCGCCGG
DNA 2: CCGGCGCTCTTTTCGCGAACATTCGAGGCG
For the molecule B1, the binding result in series [1] was “binds”.

B2: tor-RE 25-bp probe (dsDNA)
DNA 1: CGTTCCTTGCTCAATGAATTTTTCG
DNA 2: CGAAAAATTCATTGAGCAAGGAACG
Turning to B2, the binding result in series [2] was “no binding”; in series [3] it was “no binding”; in series [4] it was “binds”; in series [5], “no binding”; in series [6] it was “binds”. The molecule also returned a binding signal in series [7] of 5 fold vs GAF alone.

B3: TBS competitor (dsDNA)
DNA 1: TCCTCATGGTCCTGCCGAGCAG
DNA 2: CTGCTCGGCAGGACCATGAGGA
In the case of B3, the binding result in series [8] is “no binding”.
